In publication PMC10515009, “A regulatory GhBPE-GhPRGL module maintains ray petal length in Gerbera hybrida”:

Target: T1, GST-N-GhBPE (Gerbera hybrida)
T1 chain: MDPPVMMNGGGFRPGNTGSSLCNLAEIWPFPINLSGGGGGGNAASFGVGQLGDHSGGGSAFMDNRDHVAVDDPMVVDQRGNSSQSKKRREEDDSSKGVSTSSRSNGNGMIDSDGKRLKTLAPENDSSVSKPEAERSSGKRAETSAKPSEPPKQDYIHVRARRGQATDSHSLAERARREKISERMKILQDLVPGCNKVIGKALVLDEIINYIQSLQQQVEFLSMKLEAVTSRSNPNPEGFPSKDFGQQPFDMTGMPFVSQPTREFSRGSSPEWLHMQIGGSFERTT
Test: EMSA; LightShift Chemiluminescent EMSA kit; buffer, salt, pH and temperature not stated (as Han et al. 2017)
Settings: protein: recombinant; vector pET32-GST; label: 5' biotin (Methods); blunt

B1: MUT-probe2 (both JA response elements mutated) (dsDNA)
DNA 1: AACACATAAAAAAATCTGTGGTTTTATTGGTTTGTTATTTATCAGATACATTTTAAATATTTAATCGATAATCAAATTTTTTATTAAACACCCACCCCCA
DNA 2: TGGGGGTGGGTGTTTAATAAAAAATTTGATTATCGATTAAATATTTAAAATGTATCTGATAAATAACAAACCAATAAAACCACAGATTTTTTTATGTGTT
  binding result: no binding
